Data taken from article PMC5499575 (Nucleic Acids Research, 2017).

Biological target: T1, HDA15-GST (Arabidopsis, UniProt Q8GXJ1 1-552)
T1 sequence (looked up): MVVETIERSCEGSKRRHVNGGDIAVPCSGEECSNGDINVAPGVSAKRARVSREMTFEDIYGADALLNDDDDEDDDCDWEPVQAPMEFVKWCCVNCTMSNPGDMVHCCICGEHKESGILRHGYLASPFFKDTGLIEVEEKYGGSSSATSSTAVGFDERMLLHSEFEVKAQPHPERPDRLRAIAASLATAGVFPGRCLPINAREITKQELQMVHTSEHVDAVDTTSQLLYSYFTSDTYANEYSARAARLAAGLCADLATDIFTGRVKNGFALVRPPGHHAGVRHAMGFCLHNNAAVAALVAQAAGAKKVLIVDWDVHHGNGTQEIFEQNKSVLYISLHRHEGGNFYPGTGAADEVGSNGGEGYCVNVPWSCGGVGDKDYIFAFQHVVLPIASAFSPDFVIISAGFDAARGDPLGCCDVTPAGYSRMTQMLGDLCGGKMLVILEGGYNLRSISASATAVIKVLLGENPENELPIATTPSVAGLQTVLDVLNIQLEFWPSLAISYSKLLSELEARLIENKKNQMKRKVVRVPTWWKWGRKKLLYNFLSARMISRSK
Assay: pull-down

- binding result: binds
B1: PIF1-His (natural protein, Arabidopsis, UniProt Q8GZM7 1-478, looked up)
chain: MHHFVPDFDTDDDYVNNHNSSLNHLPRKSITTMGEDDDLMELLWQNGQVVVQNQRLHTKKPSSSPPKLLPSMDPQQQPSSDQNLFIQEDEMTSWLHYPLRDDDFCSDLLFSAAPTATATATVSQVTAARPPVSSTNESRPPVRNFMNFSRLRGDFNNGRGGESGPLLSKAVVRESTQVSPSATPSAAASESGLTRRTDGTDSSAVAGGGAYNRKGKAVAMTAPAIEITGTSSSVVSKSEIEPEKTNVDDRKRKEREATTTDETESRSEETKQARVSTTSTKRSRAAEVHNLSERKRRDRINERMKALQELIPRCNKSDKASMLDEAIEYMKSLQLQIQMMSMGCGMMPMMYPGMQQYMPHMAMGMGMNQPIPPPSFMPFPNMLAAQRPLPTQTHMAGSGPQYPVHASDPSRVFVPNQQYDPTSGQPQYPAGYTDPYQQFRGLHPTQPPQFQNQATSYPSSSRVSSSKESEDHGNHTTG
